Results from patent EP2105446A2.

Experiments:
[1] = biological target: MPL-zalpha11 polypeptide chimera (MPL extracellular and TM domain fused to the zalpha11 intracellular signaling domain), expressed on BaF3 cells (human) (UniProt P40238); experiment: cell-based or functional assay
[2] = biological target: factor present in the activated CD3+ selected human T-cell conditioned media (human); experiment: cell-based or functional assay

Row | Substance | proliferation of BaF3/MPL-zalpha11 cells (Alamar Blue) (fold over background) [1] | inhibition of BaF3/Zalpha11 cell growth (Alamar Blue), concentration giving complete inhibition [2] | titration of soluble receptor, lowest concentration giving complete inhibition of BaF3/Zalpha11 growth [2]
1 | thrombopoietin (TPO) (ligand) | 10 | – | –
2 | zalpha11-Fc4 (mutant) soluble receptor (zalpha11 extracellular domain fused C-terminally to human IgG/Fc) (from UniProt Q9HBE5 20-237) (Fc fusion) | – | 10 µg/mL | 1.5 µg/mL
